The record followed here is article PMC8124189, “Detection of the First Epoxyalcohol Synthase/Allene Oxide Synthase (CYP74 Clan) in the Lancelet (Branchiostoma belcheri, Chordata)” (International Journal of Molecular Sciences, 2021).

Holding throughout (experiment): purified protein
Holding throughout (format): biochemical, Branchiostoma belcheri
Common to all, as to settings: Na phosphate buffer (pH range 6.0-8.0 stated; optimum pH 7.0), 25 °C, substrate 5-150 μM

Substrate in data set [1]: CC/C=C\C/C=C\C=C\[C@H](CCCCCCCC(=O)O)OO
Substrate in data set [2]: CC/C=C\C[C@@H](/C=C/C=C\CCCCCCCC(=O)O)OO
Substrate in data set [3]: CCCCC/C=C\C=C\[C@H](CCCCCCCC(=O)O)OO
Substrate in data set [4]: CCCCC[C@@H](/C=C/C=C\CCCCCCCC(=O)O)OO

B1: CYP440A18 (BbEAS/AOS) (Branchiostoma belcheri) (protein)
chain: MGNAIGYLKWLGQGKQAFAPDRKEDFVETNIGFPCRVVTGNKAVQSVFDIDLFKKEEFFFGLIEIRKEFTEGVCPSVTSNGKIHEKNKALMMDVIAGAYEEIPTSTADAVLSNIATWGSTPTDFESKLMAVSAGIFLPTIFGRSTRFNPEDVNLYVKGATELRSDILAAVTREDLTETRRGMRSVLEKIKTSERYSQLIDLGRSHGLDEASTTGQLLFCVMFNAVGGTATNLVATFGRLDTISAEDRQELREEALAALRKHGGLTRAALEEMPKIESFVLEVLRTCPSPGVWSHIAARPTTVKYTTASGPKEVNIKEGERVYASPYWALRDPAVFDKPDDFVWRRFLGPEGEALREHHVTFHGRLTDSAAVNNHMCPGRDVALSVIKGSIAILNTFFGWELQERPFWTGTKVSRIGQPDNVVKVKSFWLQHPDDLKEIFPSHFEEIHDSLNSAVLQCP
notes: full-length, 458 aa; codon-adapted synthetic gene in pET-23a; C-terminal His tag; E. coli BL21(DE3)pLysS; IMAC purified
A word on the Km: it is the substrate concentration at which the rate is half of its maximum. As usually defined, the kcat is the number of substrate molecules converted per active site and unit of time at saturation. The kcat/Km is the second-order rate constant that governs catalysis at low substrate concentration. As for B1, the Km was 31.8 µM in the data set “purified protein [1]”, 17.6 µM in the data set “purified protein [2]”, 37.0 µM in “purified protein [3]” and 18.6 µM in the data set “purified protein [4]”. Moreover, the kcat came out at 248 s⁻¹ in “purified protein [1]”, 432 s⁻¹ in the data set “purified protein [2]”, 164 s⁻¹ in the data set “purified protein [3]” and 174 s⁻¹ in “purified protein [4]”. In addition, the kcat/Km in the data set “purified protein [1]” was 7.8e+06 M⁻¹ s⁻¹; in the data set “purified protein [2]”, 2.45e+07 M⁻¹ s⁻¹; in the data set “purified protein [3]”, 4.4e+06 M⁻¹ s⁻¹; in “purified protein [4]”, 9.4e+06 M⁻¹ s⁻¹.
